According to publication PMC6744678:

Target: Flag-CCDC74B wild-type (in HeLa cells) (human)
Assay: cross-linking; HeLa cells expressing Flag-CCDC74B treated with 1 mM disuccinimidyl suberate (DSS) in DMSO for 30 min; anti-Flag Western blot

## Flag-CCDC74B wild-type (in HeLa cells) (natural protein)
  stoichiometry N: 2
